Measurements taken from US9782454B2 (LONGEVITY BIOTECH, INC., priority 2010, dated 2017).
Non-standard residues stand in square brackets, D forms with d. No end group written: not given here. ACPC = cyclic beta amino acid; APC = cyclic beta amino acid

Legend:
[1] = molecular target: T1, human calcitonin receptor (Homo sapiens, UniProt P30988); settings: read-out: EC50, agonist for the human calcitonin receptor; cited from earlier work
T1 sequence (P30988 25-474): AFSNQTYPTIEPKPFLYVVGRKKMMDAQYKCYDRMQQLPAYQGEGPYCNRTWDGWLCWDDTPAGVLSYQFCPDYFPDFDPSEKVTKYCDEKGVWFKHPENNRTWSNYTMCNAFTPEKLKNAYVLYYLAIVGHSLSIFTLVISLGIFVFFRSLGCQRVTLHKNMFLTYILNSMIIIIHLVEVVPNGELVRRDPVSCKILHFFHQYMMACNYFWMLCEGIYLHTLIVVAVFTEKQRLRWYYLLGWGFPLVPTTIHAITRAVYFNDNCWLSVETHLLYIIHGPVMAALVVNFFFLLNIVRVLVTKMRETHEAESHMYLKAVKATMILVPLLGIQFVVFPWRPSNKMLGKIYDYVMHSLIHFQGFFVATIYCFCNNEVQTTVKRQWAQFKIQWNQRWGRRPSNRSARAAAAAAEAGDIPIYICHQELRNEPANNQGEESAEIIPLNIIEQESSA

[2] = molecular target: VIPR2 (VPAC2) receptor, cAMP Hunter cell line expressing VIPR2 (UniProt P41587); test: cell-based or functional assay
[3] = molecular target: T2, Glucagon receptor (Rattus norvegicus, UniProt P30082); settings: cited from earlier work
T2 construct: Enhances glucose-stimulated; from tissue; host or cells: rat liver membranes (value quoted from the literature)

[4] = molecular target: T3, VIPR1 (VPAC1) receptor, cAMP Hunter cell line expressing VIPR1 (UniProt P32241 31-457, limits assumed); test: cell-based or functional assay
T3 sequence (looked up): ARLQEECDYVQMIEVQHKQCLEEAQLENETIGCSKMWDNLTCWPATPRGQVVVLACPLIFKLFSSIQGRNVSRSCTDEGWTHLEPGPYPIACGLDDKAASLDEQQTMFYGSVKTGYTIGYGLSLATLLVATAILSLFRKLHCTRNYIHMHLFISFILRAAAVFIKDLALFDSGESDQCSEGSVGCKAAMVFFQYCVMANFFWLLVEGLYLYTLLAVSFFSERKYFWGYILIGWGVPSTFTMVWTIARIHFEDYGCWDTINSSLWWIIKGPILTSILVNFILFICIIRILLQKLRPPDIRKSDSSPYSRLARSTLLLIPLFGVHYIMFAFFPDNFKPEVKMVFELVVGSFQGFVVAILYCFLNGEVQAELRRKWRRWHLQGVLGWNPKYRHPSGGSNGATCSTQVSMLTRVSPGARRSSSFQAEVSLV

Sequence of VIPR2 (VPAC2) receptor, cAMP Hunter cell line expressing VIPR2 (P41587 24-438 limits assumed): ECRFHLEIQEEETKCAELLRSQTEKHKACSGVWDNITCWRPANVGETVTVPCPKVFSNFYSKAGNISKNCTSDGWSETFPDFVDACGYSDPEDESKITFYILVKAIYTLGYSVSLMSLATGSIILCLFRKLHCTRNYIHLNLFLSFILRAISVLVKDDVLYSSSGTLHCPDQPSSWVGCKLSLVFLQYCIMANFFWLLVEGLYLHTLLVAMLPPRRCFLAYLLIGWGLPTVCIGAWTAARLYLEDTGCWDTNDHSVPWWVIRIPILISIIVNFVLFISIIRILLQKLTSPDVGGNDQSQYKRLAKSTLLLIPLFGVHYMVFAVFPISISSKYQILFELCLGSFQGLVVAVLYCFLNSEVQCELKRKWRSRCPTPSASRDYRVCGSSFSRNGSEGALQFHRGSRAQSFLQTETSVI
T2 sequence (P30082 27-485): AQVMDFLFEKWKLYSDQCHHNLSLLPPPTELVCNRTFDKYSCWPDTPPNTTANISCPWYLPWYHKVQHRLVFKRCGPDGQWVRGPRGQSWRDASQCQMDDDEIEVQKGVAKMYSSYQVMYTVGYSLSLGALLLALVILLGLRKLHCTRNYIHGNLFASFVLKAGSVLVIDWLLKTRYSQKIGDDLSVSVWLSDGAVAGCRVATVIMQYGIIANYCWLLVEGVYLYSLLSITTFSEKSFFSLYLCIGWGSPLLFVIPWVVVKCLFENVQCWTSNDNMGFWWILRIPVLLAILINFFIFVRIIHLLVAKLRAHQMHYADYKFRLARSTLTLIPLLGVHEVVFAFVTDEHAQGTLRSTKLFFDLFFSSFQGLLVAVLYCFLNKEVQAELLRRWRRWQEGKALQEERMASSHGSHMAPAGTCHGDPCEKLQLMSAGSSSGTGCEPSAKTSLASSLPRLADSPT

PHM 27 (human) (HADGVFTSDFSKLLGQLSAKKYLESLM-NH2; UniProt P01282 81-107, looked up)
EC50 [1]: 11 nM

VIP analogue Compound 8 (…XRLZKQLXVKZYLNXILN) (peptide)
% Activity, cAMP agonist mode, at 1.00E-07 M (block headed Compound ID 9) [2]: 0.4%
% Activity, cAMP agonist mode, at 1.00E-08 M (block headed Compound ID 9) [2]: 1.2%
% Activity, cAMP agonist mode, at 1.00E-09 M (block headed Compound ID 9) [2]: 0.4%
% Activity, cAMP agonist mode, at 1.00E-10 M (block headed Compound ID 9) [2]: -1.1%
% Activity, cAMP agonist mode, at 1.00E-11 M (block headed Compound ID 9) [2]: 0.9%
% Activity, cAMP agonist mode, at 1.00E-12 M (block headed Compound ID 9) [2]: 0.4%
% Activity, cAMP agonist mode, at 5.00E-07 M (block headed Compound ID 9) [2]: 1.9%
% Activity, cAMP agonist mode, at 5.00E-08 M (block headed Compound ID 9) [2]: 0.9%
% Activity, cAMP agonist mode, at 5.00E-09 M (block headed Compound ID 9) [2]: 0.1%
% Activity, cAMP agonist mode, at 5.00E-10 M (block headed Compound ID 9) [2]: 1.5%
% Inhibition, cAMP antagonist mode against EC80 VIP, at 1.00E-07 M [2]: 6.5%
% Inhibition, cAMP antagonist mode against EC80 VIP, at 1.00E-08 M [2]: 9.4%
% Inhibition, cAMP antagonist mode against EC80 VIP, at 1.00E-09 M [2]: 6.5%
% Inhibition, cAMP antagonist mode against EC80 VIP, at 1.00E-10 M [2]: 4.2%
% Inhibition, cAMP antagonist mode against EC80 VIP, at 1.00E-11 M [2]: 8.7%
% Inhibition, cAMP antagonist mode against EC80 VIP, at 1.00E-12 M [2]: 3.7%
% Inhibition, cAMP antagonist mode against EC80 VIP, at 5.00E-07 M [2]: 8.4%
% Inhibition, cAMP antagonist mode against EC80 VIP, at 5.00E-08 M [2]: 6.2%
% Inhibition, cAMP antagonist mode against EC80 VIP, at 5.00E-09 M [2]: 10.9%
% Inhibition, cAMP antagonist mode against EC80 VIP, at 5.00E-10 M [2]: 12.7%
Mean RLU, cAMP agonist mode, at 1.00E-07 M (block headed Compound ID 9) [2]: 8920 RLU
Mean RLU, cAMP agonist mode, at 1.00E-08 M (block headed Compound ID 9) [2]: 9560 RLU
Mean RLU, cAMP agonist mode, at 1.00E-09 M (block headed Compound ID 9) [2]: 8560 RLU
Mean RLU, cAMP agonist mode, at 1.00E-10 M (block headed Compound ID 9) [2]: 7560 RLU
Mean RLU, cAMP agonist mode, at 1.00E-11 M (block headed Compound ID 9) [2]: 3280 RLU
Mean RLU, cAMP agonist mode, at 1.00E-12 M (block headed Compound ID 9) [2]: 9300 RLU
Mean RLU, cAMP agonist mode, at 5.00E-07 M (block headed Compound ID 9) [2]: 10200 RLU
Mean RLU, cAMP agonist mode, at 5.00E-08 M (block headed Compound ID 9) [2]: 9200 RLU
Mean RLU, cAMP agonist mode, at 5.00E-09 M (block headed Compound ID 9) [2]: 8560 RLU
Mean RLU, cAMP agonist mode, at 5.00E-10 M (block headed Compound ID 9) [2]: 3920 RLU
Mean RLU, cAMP antagonist mode against EC80 VIP, at 1.00E-07 M [2]: 79600 RLU
Mean RLU, cAMP antagonist mode against EC80 VIP, at 1.00E-08 M [2]: 77500 RLU
Mean RLU, cAMP antagonist mode against EC80 VIP, at 1.00E-09 M [2]: 79500 RLU
Mean RLU, cAMP antagonist mode against EC80 VIP, at 1.00E-10 M [2]: 81300 RLU
Mean RLU, cAMP antagonist mode against EC80 VIP, at 1.00E-11 M [2]: 78000 RLU
Mean RLU, cAMP antagonist mode against EC80 VIP, at 1.00E-12 M [2]: 81700 RLU
Mean RLU, cAMP antagonist mode against EC80 VIP, at 5.00E-07 M [2]: 64200 RLU
Mean RLU, cAMP antagonist mode against EC80 VIP, at 5.00E-08 M [2]: 79500 RLU
Mean RLU, cAMP antagonist mode against EC80 VIP, at 5.00E-09 M [2]: 76300 RLU
Mean RLU, cAMP antagonist mode against EC80 VIP, at 5.00E-10 M [2]: 74900 RLU

des-His1-{Glu9}-Glucagon (1-29) amide
agonist activity at the glucagon receptor [3]: activation in rat liver membranes); displays no agonist activity. Enhances glucose-stimulated
pA2 for inhibition of glucagon-induced adenylyl cyclase activation in rat liver membranes [3]: (Glucagon receptor antagonist (pA2 = 7.2 for inhibition of glucagon-induced adenylyl cyclase

HSDAVFTDNY[ACPC]RL[APC]KQL[ACPC]VK[APC]YLN[ACPC]ILN (ends and bridges not checked) [VIP analogue Compound 8 (HSDAVFTDNYXRLZKQLXVKZYLNXILN)]
EC50, cAMP agonist mode [4]: 28 nM
